Laboratory results taken from patent publication US20120316071A1 (published 2012).
Each block holds one binder with its values, some of them ahead of it.

What was measured:
[1] = biological target: T1, rHuman HGF R/c-MET/Fc Chimera, CF (R&D Systems Cat#358-MT/CF) (human, UniProt P08581 25-932); test: ECL multispot (MSD), 20 nM Fab;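 also: purified Fab binding to antigens on multispot plates, read by electrochemiluminescence with a TAG-labelled detection antibody, 1 h Fab incubation at 20 °C, signal expressed relative to each well's blank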
T1 construct: Bought recombinant protein; also called HGF R/Fc; hepatocyte growth factor receptor; Fc part of the bought chimera not given

[2] = biological target: T2, rHuman ErbB2/Fc Chimera, CF (R&D Systems Cat#1129-ER) (human, UniProt P04626 23-652); test: ECL multispot (MSD), 20 nM Fab;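 also: purified Fab binding to antigens on multispot plates, read by electrochemiluminescence with a TAG-labelled detection antibody, 1 h Fab incubation at 20 °C, signal expressed relative to each well's blank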
T2 construct: Bought recombinant protein; also called human epidermal growth factor 2 receptor; Fc part of the bought chimera not given

[3] = biological target: T3, Recombinant Human DLL4 (R&D Systems Cat#1506-D4/CF) (human, UniProt Q9NR61 27-524); test: ECL multispot (MSD), 20 nM Fab;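 also: purified Fab binding to antigens on multispot plates, read by electrochemiluminescence with a TAG-labelled detection antibody, 1 h Fab incubation at 20 °C, signal expressed relative to each well's blank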
T3 construct: Bought recombinant protein; also called delta-like protein 4; rHuman DLL4

[4] = biological target: T4, rHuman EGF R/Fc Chimera, CF (R&D Systems Cat#344-ER) (human, UniProt P00533 25-645); test: ECL multispot (MSD), 20 nM Fab;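 also: purified Fab binding to antigens on multispot plates, read by electrochemiluminescence with a TAG-labelled detection antibody, 1 h Fab incubation at 20 °C, signal expressed relative to each well's blank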
T4 construct: Bought recombinant protein; also called epidermal growth factor receptor; Fc part of the bought chimera not given

[5] = biological target: T5, rHuman IGF-1 sR, (IGF-1 sR), CF (R&D Systems Cat#391-GR) (human, UniProt P08069 31-932); test: ECL multispot (MSD), 20 nM Fab
T5 construct: Bought recombinant soluble receptor; also called insulin-like growth factor-1 soluble receptor

[6] = biological target: T6, rHuman P-Cadherin/Fc Chimera, CF (R&D Systems Cat#861-PC) (human, UniProt P22223 108-654); test: ECL multispot (MSD), 20 nM Fab
T6 construct: Bought recombinant protein; Fc part of the bought chimera not given

[7] = biological target: T7, rHuman Erythropoietin R/Fc Chimera, CF (R&D Systems Cat#963-ER) (human, UniProt P19235 25-250); test: ECL multispot (MSD), 20 nM Fab
T7 construct: Bought recombinant protein; also called EPO R; EPO R/Fc; Fc part of the bought chimera not given
T7 sequence (looked up): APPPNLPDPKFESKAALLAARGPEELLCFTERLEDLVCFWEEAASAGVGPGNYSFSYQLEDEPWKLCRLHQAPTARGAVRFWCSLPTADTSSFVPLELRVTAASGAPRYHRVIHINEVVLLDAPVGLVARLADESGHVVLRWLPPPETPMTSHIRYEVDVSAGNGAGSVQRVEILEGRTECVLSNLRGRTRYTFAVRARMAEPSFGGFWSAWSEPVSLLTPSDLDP

[8] = biological target: T8, rHuman Notch-1/Fc Chimera, CF (R&D Systems Cat#3647-TK) (human, UniProt P46531 19-526); test: ECL multispot (MSD), 20 nM Fab
T8 construct: Bought recombinant protein; Fc part of the bought chimera not given

[9] = biological target: T9, rHuman CD44/Fc Chimera, CF (R&D Systems Cat#3660-CD) (human, UniProt P16070 21-220); test: ECL multispot (MSD), 20 nM Fab
T9 construct: Bought recombinant protein; Fc part of the bought chimera not given

[10] = biological target: T10, rHuman Erythropoietin R/Fc Chimera, CF (R&D Systems Cat#963-ER) (human, UniProt P19235 25-250); test: ECL multispot (MSD) binding assay, antigens spotted on plate, 20 nM Fab;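 also: fab incubated 1 h at 20 °C on antigen-spotted wells, bound Fab detected by TAG-labelled antibody, ratio of 4 or more over blank counted as a hit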
T10 construct: Bought recombinant protein; also called EPO R; Epo R; Fc part of the bought chimera not given
T10 sequence (looked up): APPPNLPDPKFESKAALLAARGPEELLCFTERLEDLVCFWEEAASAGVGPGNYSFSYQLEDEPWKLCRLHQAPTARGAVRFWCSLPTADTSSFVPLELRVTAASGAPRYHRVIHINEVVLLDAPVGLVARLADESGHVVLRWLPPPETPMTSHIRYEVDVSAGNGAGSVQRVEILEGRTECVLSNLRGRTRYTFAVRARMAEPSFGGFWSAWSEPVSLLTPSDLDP

[11] = biological target: T11, rHuman EGF R/Fc Chimera, CF (R&D Systems Cat#344-ER) (human, UniProt P00533 25-645); test: as above
T11 construct: Bought recombinant protein; also called epidermal growth factor receptor; Fc part of the bought chimera not given

[12] = biological target: T12, rHuman ErbB2/Fc Chimera, CF (R&D Systems Cat#1129-ER) (human, UniProt P04626 23-652); test: as above
T12 construct: Bought recombinant protein; also called human epidermal growth factor 2 receptor; Fc part of the bought chimera not given

[13] = biological target: T13, rHuman IGF-1 sR, (IGF-1 sR), CF (R&D Systems Cat#391-GR) (human, UniProt P08069 31-932); test: as above
T13 construct: Bought recombinant soluble receptor; The column head prints only 'IGF-1'; also called insulin-like growth factor-1 soluble receptor

[14] = biological target: T14, rHuman HGF R/c-MET/Fc Chimera, CF (R&D Systems Cat#358-MT/CF) (human, UniProt P08581 25-932); test: as above
T14 construct: Bought recombinant protein; also called HGF R/Fc; hepatocyte growth factor receptor; Fc part of the bought chimera not given

[15] = biological target: T15, Recombinant Human DLL4 (R&D Systems Cat#1506-D4/CF) (human, UniProt Q9NR61 27-524); test: as above
T15 construct: Bought recombinant protein; also called delta-like protein 4; rHuman DLL4

[16] = biological target: T16, rHuman P-Cadherin/Fc Chimera, CF (R&D Systems Cat#861-PC) (human, UniProt P22223 108-654); test: as above
T16 construct: Bought recombinant protein; Fc part of the bought chimera not given

[17] = biological target: T17, rHuman CD44/Fc Chimera, CF (R&D Systems Cat#3660-CD) (human, UniProt P16070 21-220); test: as above
T17 construct: Bought recombinant protein; Fc part of the bought chimera not given

[18] = biological target: T18, rHuman Notch-1/Fc Chimera, CF (R&D Systems Cat#3647-TK) (human, UniProt P46531 19-526); test: as above
T18 construct: Bought recombinant protein; Fc part of the bought chimera not given

[19] = biological target: T19, Recombinant Human DLL4 (delta-like protein 4) (human, UniProt Q9NR61 27-524); test: SPR, Fab on recombinant human DLL4; column head x10^5 applied; (±4.16) at r18c3
T19 construct: Bought recombinant protein; also called rHuman DLL4; Delta-like 4

[20] = biological target: T19, Recombinant Human DLL4 (delta-like …); test: SPR, Fab on recombinant human DLL4; (±9.3) at r18c5
[21] = biological target: T19, Recombinant Human DLL4 (delta-like …); test: SPR, Fab on recombinant human DLL4; column head x10^-3 applied as printed, but KD x ka implies 0.101 s^-1 unscaled; (±0.0153) at r18c4
[22] = biological target: T20, Recombinant Human DLL4 (R&D Systems Cat#1506-D4/CF) (human, UniProt Q9NR61 27-524); test: ECL (MSD) binding assay, DLL4 coated on plate, Fab 0.04 uM
T20 construct: Bought recombinant human DLL4 coated on the ECL plate; also called delta-like protein 4; Delta-like 4

[23] = biological target: T21, rHuman IGF-1 sR, CF (R&D Systems Cat#391-GR) (human, UniProt P08069 31-932); test: Multispot ECL (MSD), antigen spotted on plate, Fab 36 nM; blank spot 413
T21 construct: Bought recombinant soluble receptor; also called insulin-like growth factor-1 soluble receptor

[24] = biological target: T22, rHuman ErbB2/Fc Chimera, CF (R&D Systems Cat#1129-ER) (human, UniProt P04626 23-652); test: as above
T22 construct: Bought recombinant protein; also called human epidermal growth factor 2 receptor (ErbB2); Fc part of the bought chimera not given

[25] = biological target: T23, rHuman HGF R/c-MET/Fc Chimera, CF (R&D Systems Cat#358-MT/CF) (human, UniProt P08581 25-932); test: as above
T23 construct: Bought recombinant protein; also called HGF R/Fc; hepatocyte growth factor receptor (HGF R/c-Met); Fc part of the bought chimera not given

[26] = biological target: T24, rHuman P-Cadherin/Fc Chimera, CF (R&D Systems Cat#861-PC) (human, UniProt P22223 108-654); test: as above
T24 construct: Bought recombinant protein; Fc part of the bought chimera not given

[27] = biological target: T25, rHuman Erythropoietin R/Fc Chimera, CF (R&D Systems Cat#963-ER) (human, UniProt P19235 25-250); test: as above
T25 construct: Bought recombinant protein; also called EPO R/Fc; Epo R; Fc part of the bought chimera not given
T25 sequence (looked up): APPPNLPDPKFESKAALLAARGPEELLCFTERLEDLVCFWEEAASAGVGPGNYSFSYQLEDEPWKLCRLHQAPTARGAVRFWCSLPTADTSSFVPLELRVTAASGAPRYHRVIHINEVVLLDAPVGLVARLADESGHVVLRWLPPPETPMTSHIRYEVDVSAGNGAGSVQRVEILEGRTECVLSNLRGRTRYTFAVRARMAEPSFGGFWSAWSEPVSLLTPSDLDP

[28] = biological target: T26, rHuman CD44/Fc Chimera, CF (R&D Systems Cat#3660-CD) (human, UniProt P16070 21-220); test: as above
T26 construct: Bought recombinant protein; Fc part of the bought chimera not given

[29] = biological target: T21, rHuman IGF-1 sR, CF (R&D Systems …); test: Multispot ECL (MSD), antigen spotted on plate, Fab 360 nM; blank spot 462
[30] = biological target: T22, rHuman ErbB2/Fc Chimera, CF (R&D …); test: as above
[31] = biological target: T23, rHuman HGF R/c-MET/Fc Chimera, CF (R&D …); test: as above
[32] = biological target: T24, rHuman P-Cadherin/Fc Chimera, CF (R&D …); test: as above
[33] = biological target: T25, rHuman Erythropoietin R/Fc Chimera, CF …; test: as above
[34] = biological target: T26, rHuman CD44/Fc Chimera, CF (R&D Systems …); test: as above

B1: Fab VH3-23_IGHD2-21*01>3_IGHJ6*01 H100E/S108P/Y113G (EPG) Y109P & V2-13_IGLJ2*01 (Fab, V domains shown)
VH: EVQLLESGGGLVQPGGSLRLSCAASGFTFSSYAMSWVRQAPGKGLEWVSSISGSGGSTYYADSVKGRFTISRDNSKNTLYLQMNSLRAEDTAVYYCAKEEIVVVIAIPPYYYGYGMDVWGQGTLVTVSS
VL: SSELTQDPAVSVALGQTVRITCQGDSLRSYYASWYQQKPGQAPVLVIYGKNNRPSGIPDRFSGSSSGNTASLTITGAQAEDEADYYCNSRDSSGNHLVVFGGGTKLTVL
notes: Fab; NNK mutant of the EPG heavy chain; CH1 (tags) and lambda CL come from the vectors
ECL signal ratio (column head gives no unit) [1]: 1.8
ECL signal ratio (column head gives no unit) [2]: 1.5
ECL signal ratio (column head gives no unit) [3]: 1.6
ECL signal ratio (column head gives no unit) [4]: 1.6
ECL signal ratio (column head gives no unit) [5]: 1.4
ECL signal ratio (column head gives no unit) [6]: 1.9
ECL signal ratio (column head gives no unit) [7]: 1.8
ECL signal ratio (column head gives no unit) [8]: 1.1
ECL signal ratio (column head gives no unit) [9]: 1.1

B2: Fab VH3-23_IGHD2-21*01>3_IGHJ6*01 H100E/S108P/Y113G Y110E & V2-13_IGLJ2*01 (Fab, V domains shown)
VH: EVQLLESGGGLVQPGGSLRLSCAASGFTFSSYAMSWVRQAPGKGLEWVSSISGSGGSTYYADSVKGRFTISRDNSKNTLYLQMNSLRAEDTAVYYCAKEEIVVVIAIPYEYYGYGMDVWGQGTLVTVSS
VL: SSELTQDPAVSVALGQTVRITCQGDSLRSYYASWYQQKPGQAPVLVIYGKNNRPSGIPDRFSGSSSGNTASLTITGAQAEDEADYYCNSRDSSGNHLVVFGGGTKLTVL
notes: Tested as Fab made in E. coli: VH joined to CH1 (His and Flag tags), VL joined to lambda CL; also called EPG Y110E
ECL multispot signal (ratio to blank; column not labelled) [10]: 2.2
ECL multispot signal (ratio to blank; column not labelled) [11]: 1.6
ECL multispot signal (ratio to blank; column not labelled) [12]: 1.7
ECL multispot signal (ratio to blank; column not labelled) [13]: 1.4
ECL multispot signal (ratio to blank; column not labelled) [14]: 1.8
ECL multispot signal (ratio to blank; column not labelled) [15]: 1.8
ECL multispot signal (ratio to blank; column not labelled) [16]: 2
ECL multispot signal (ratio to blank; column not labelled) [17]: 1.3
ECL multispot signal (ratio to blank; column not labelled) [18]: 1.5

Continued, values first:

kon [19]: 2.53e+06 M⁻¹ s⁻¹
Kd [20]: 40.3 nM
koff [21]: 0.000101 s⁻¹
B3: Fab VH5-51_IGHD5-18*01>3_IGHJ4*01 G100K/G104T G24T/S28R/G35V & V3-4_IGLJ1*01 M94R/S96M (Fab, V domains shown)
VH: EVQLVQSGAEVKKPGESLKISCKTSGYRFTSYWIVWVRQMPGKGLEWMGIIYPGDSDTRYSPSFQGQVTISADKSISTAYLQWSSLKASDTAMYYCARRKYSYTYDYFDYWGQGTLVTVSS
VL: QTVVTQEPSFSVSPGGTVTLTCGLSSGSVSTSYYPSWYQQTPGQAPRTLIYSTNTRSSGVPDRFSGSILGNKAALTITGAQADDESDYYCVLYRGMGISYVFGTGTKVTVL
notes: Fab made in E. coli; VH was cloned in Plasmid A (CH1, His6 and Flag tags) and VL in Plasmid E (lambda CL); also called H:KT TRV & L:RM

Signal/Noise [22]: 3.1
B4: Fab VH5-51_IGHD5-18*01>3_IGHJ3*01 & V3-4_IGLJ1*01 (Fab, V domains shown)
VH: EVQLVQSGAEVKKPGESLKISCKGSGYSFTSYWIGWVRQMPGKGLEWMGIIYPGDSDTRYSPSFQGQVTISADKSISTAYLQWSSLKASDTAMYYCARRGYSYGYDAFDVWGQGTLVTVSS
VL: QTVVTQEPSFSVSPGGTVTLTCGLSSGSVSTSYYPSWYQQTPGQAPRTLIYSTNTRSSGVPDRFSGSILGNKAALTITGAQADDESDYYCVLYMGSGISYVFGTGTKVTVL
notes: Fab; the JH germline segment IGHJ4*01 of the parent is swapped for IGHJ3*01; Constant parts come from Plasmid A (CH1, His6, Flag) and Plasmid E (lambda CL); also called J-swap mutant IGHJ3*01

ECL signal [23]: 486
ECL signal [24]: 600
ECL signal [25]: 613
ECL signal [26]: 693
ECL signal [27]: 2980
ECL signal [28]: 679
ECL signal [29]: 535
ECL signal [30]: 647
ECL signal [31]: 581
ECL signal [32]: 636
ECL signal [33]: 4720
ECL signal [34]: 740
B5: Fab VH4-28_IGHD7-27*01_IGHJ1*01 & L2_IGKJ1*01 (Fab, V domains shown)
VH: QVQLQESGPGLVKPSDTLSLTCAVSGYSISSSNWWGWIRQPPGKGLEWIGYIYYSGSTYYNPSLKSRVTMSVDTSKNQFSLKLSSVTAVDTAVYYCARTNWGAEYFQHWGQGTLVTVSS
VL: not shown
